Laboratory results reported in patent US20090226474A1, “Antibodies as T cell receptor mimics, methods of production and uses thereof” (priority 2004, published 2009).

Columns and labels:
[1] = target: GVL peptide-HLA-A2 complex (human); experiment: cell-based or functional assay
[2] = target: GVL peptide-HLA-A2 complex (human); experiment: flow cytometry, T2 cells pulsed with 50 to 0.1 µg/ml GVL peptide

## BB7.2 mAb (antibody)
[1]
  CDC of T2 cells pulsed with 50 to 0.1 µg/ml GVL peptide, antibody 10 µg/ml: 53 to 70%
[2]
  MFI: 250 to 350 MFI
